Results from patent US20200247886A1 (ZLIP, published 2020).
Residue numbers refer to the chain shown, from its start.

How the values were obtained:
[1] = biological target: T1, human CD47 expressed on cells (CD47 expressing CHO cells, Jurkat, HL60, DLD1, Raji) (human, UniProt Q08722 19-292); test: flow cytometry SIRP-alpha blocking assay on Raji cells, MFI
T1 construct: also called CHO-CD47; IAP

[2] = biological target: T1, human CD47 expressed on cells (CD47 …); test: flow cytometry on human platelets, donor 1, MFI
[3] = biological target: T1, human CD47 expressed on cells (CD47 …); test: flow cytometry on human platelets, donor 2, MFI
[4] = biological target: T1, human CD47 expressed on cells (CD47 …); test: flow cytometry on human red blood cells, donor 1, MFI
[5] = biological target: T1, human CD47 expressed on cells (CD47 …); test: flow cytometry on human red blood cells, donor 2, MFI
CHO/mCD47-GFP = biological target: T2, CHO/mCD47-GFP (mouse, UniProt Q61735); test: flow cytometry on CHO cells expressing mouse CD47-GFP, binding percentage
T2 construct: on the cell surface; also called mouse CD47 expressed on CHO cells; CHO cell expressing mouse CD47
T2 sequence (receptor, looked up): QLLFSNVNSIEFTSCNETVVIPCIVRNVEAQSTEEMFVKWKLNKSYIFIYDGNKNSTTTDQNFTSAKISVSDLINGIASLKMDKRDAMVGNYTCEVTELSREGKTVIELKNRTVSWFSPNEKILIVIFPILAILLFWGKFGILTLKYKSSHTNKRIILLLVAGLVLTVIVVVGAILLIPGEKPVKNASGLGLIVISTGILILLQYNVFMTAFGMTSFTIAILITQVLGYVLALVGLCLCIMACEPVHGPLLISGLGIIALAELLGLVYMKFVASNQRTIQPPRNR

[6] = biological target: T1, human CD47 expressed on cells (CD47 …); test: flow cytometry on DLD1 cells, IgG, MFI
[7] = biological target: T1, human CD47 expressed on cells (CD47 …); test: flow cytometry on DLD1 cells, IgG, frequency
[8] = biological target: T3, CD47 protein (construct not stated; SPR antigen, CD47 coated ELISA plates) (Homo sapiens (Human), UniProt Q08722 19-139, limits assumed); test: ELISA on CD47, OD450 against Log[M]; column headed KD beside the legend
T3 construct: also called the antigen

[9] = biological target: T1, human CD47 expressed on cells (CD47 …); test: IC50 as grade, SIRPα blocking on Raji cells; legend +++: <1 nM
[10] = biological target: T1, human CD47 expressed on cells (CD47 …); test: flow cytometry blocking assay on Raji cells, SIRPα is the blocked ligand, MFI
[11] = biological target: T1, human CD47 expressed on cells (CD47 …); test: flow cytometry on human platelets, MFI
[12] = biological target: T1, human CD47 expressed on cells (CD47 …); test: flow cytometry on human red blood cells, MFI
CD47 on monkey RBC = biological target: T4, CD47 on monkey RBC (Macaca fascicularis, UniProt A0A2K5X523); test: flow cytometry on cynomolgus monkey red blood cells expressing CD47, MFI
T4 construct: native, on red blood cells; also called cynomolgus monkey red blood cells expressing CD47

[13] = biological target: T1, human CD47 expressed on cells (CD47 …); test: flow cytometry on CD47 expressing CHO cells, MFI (FL-4)

B1: H-ABU 39 (antibody, V domains shown)
VH: QVQLVQSGAEVKKPGASVKVSCKTSGYSFTNYWMQWVRQAPGQGLEWIGMIDPSDSESRLNQKFKDRATLTVDTSTSTAYMELSSLRSEDTAVYYCARRGSPMITSFAYWGQGTLVTVSS
VL: DVQITQSPSSLSASVGDRVTITCRASKNIGKYLAWFQQKPGKTNKLLIYSGSTLQSGIPSRFSGSGSGTDFTLTISSLQPEDFATYYCQQHNEYPYTFGGGTKVEIK
notes: Humanized antibody
- IC50 (read off the curve) [1]: ~0.3 nM

B2: H-ABU 41 (antibody, V domains shown)
VL: B1 VL
VH: B1 VH with V5Q, R67K, T74K
notes: Humanized antibody
- EC50 (read off the curve) [2]: ~0.6 nM
- EC50 (read off the curve) [3]: ~0.6 nM
- EC50 (read off the curve) [4]: ~1 nM
- EC50 (read off the curve) [5]: ~1 nM
- IC50 (read off the curve) [1]: ~0.3 nM

B3: H-ABU 38 (antibody, V domains shown)
VH: B1 VH with T24A, S28T, A79V
VL: B1 VL
notes: Humanized antibody
- IC50 (read off the curve) [1]: ~0.3 nM

B4: H-ABU 37 (antibody, V domains shown)
VH: B1 VH with T24A, S28T, I48M, A68V, L70M, V72R, A79V
VL: B1 VL
notes: Humanized antibody
- IC50 (read off the curve) [1]: ~0.3 nM

B5: H-ABU 43 (antibody, V domains shown)
VH: B1 VH with I48M, A68V, L70M, V72R
VL: B1 VL
notes: Humanized antibody
- EC50 (read off the curve) [2]: ~0.6 nM
- EC50 (read off the curve) [3]: ~0.6 nM
- EC50 (read off the curve) [4]: ~1 nM
- EC50 (read off the curve) [5]: ~1 nM
- IC50 (read off the curve) [1]: ~0.3 nM

B6: ABU7 (antibody, V domains shown)
VH: EVQLQQSGPELVKPGASVKISCKASGYSFTGYYMNWVKQSPEKSLEWIGEINPSTGGTTYNQKFKAKATLTVDKSSSTAYMQLKSLTFEDSAVYYCAIYDGYEGFAYWGQGTLVTVSA
VL: DIKMTQSPSSMYASLGERVTITCKASQDIKSYLSWYQQKPWKSPKTLIYYATSLADGVPSRFSGSGSGQHYSLTISSLESDDTATYYCLQHGESPFTFGSGTKLEIK
notes: Murine hybridoma monoclonal antibody
- binding result (CHO/mCD47-GFP): no binding (tested: about 0.4 ug/ml)

B7: ABU16 (IgG) (antibody, V domains shown)
VH: RVQLQQSGAELVRPGTSVKVSCKASAYAFTNYLIEWVKKRPGQGLEWIGVINPGSGGTNYNEKFKGKATLTADKSSSTAYMQLSSLTSEDSAVYFCARGDGYGSLFAYWGQGTLVTVSA
VL: RHCFNQSPAIMSASPGEKVTMTCSASSSVSYMHWYQQKSGTSPKRWIYDTSNLASGVPVRFSGSGSGTSYSLTISRMEAEDAATYYCQQWSNYPFTFGSGTKLELK
- EC50 (read off the curve) [6]: ~4 nM
- EC50 (read off the curve) [7]: ~0.4 nM

B8: H-ABU2b (antibody, V domains shown)
VH: QVQLVQSGAEVKKPGASVKVSCKASGYTFTDFYINWVRQAPGQRLEWMGWIYLGSGNTKYNEKFKGRVTITVDTSASTAYMELSSLRSEDTAVYYCARREERGFAYWGQGTLVTVSS
VL: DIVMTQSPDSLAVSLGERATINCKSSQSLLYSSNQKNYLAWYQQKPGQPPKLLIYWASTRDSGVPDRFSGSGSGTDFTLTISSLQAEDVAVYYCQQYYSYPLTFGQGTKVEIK
- Kd [8]: 1.3 nM

B9: H-ABU 6 (antibody, V domains shown)
VH: B8 VH with V72R
VL: DIVMTQSPDSLAVSLGERATINCKSSQSLLSSNQKNYLAWYQQKPGQPPKLLIYWASVRDSGVPDRFSGSGSGTDFTLTISSLQAEDVAVYYCQQFYSYPLTFGQGTKVEIK
- IC50 [9]: < 1 nM
- IC50 (read off the curve) [10]: ~0.4 nM

B10: H-ABU2c (antibody, V domains shown)
VH: B8 VH with A24V
VL: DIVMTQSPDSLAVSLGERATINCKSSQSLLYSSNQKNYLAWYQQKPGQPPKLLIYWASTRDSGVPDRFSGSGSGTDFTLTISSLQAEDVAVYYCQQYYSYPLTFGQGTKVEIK
- Kd [8]: 1.5 nM

B11: H-ABU 4 (antibody, V domains shown)
VH: B8 VH with F32I, T58V, V72R, E101D
VL: B9 VL with N36Y, V58T
- IC50 [9]: < 1 nM
- IC50 (read off the curve) [10]: ~0.3 nM

B12: H-ABU 7 (antibody, V domains shown)
VH: B8 VH with F32H, V72R, E101D
VL: B9 VL with N33S, F96Y
- EC50 (read off the curve) [3]: ~0.6 nM
- IC50 [9]: < 1 nM
- EC50 (read off the curve) [4]: ~1 nM
- EC50 (read off the curve) [5]: ~1 nM
- IC50 (read off the curve) [10]: ~0.09 nM

B13: H-ABU2a (antibody, V domains shown)
VH: B8 VH with V72R
VL: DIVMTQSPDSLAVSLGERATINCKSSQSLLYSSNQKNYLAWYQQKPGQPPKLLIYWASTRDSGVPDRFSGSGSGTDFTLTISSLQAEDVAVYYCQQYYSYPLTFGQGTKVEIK
- Kd [8]: 1.6 nM

B14: H-ABU44 (antibody, V domains shown)
VH: QVQLVQSGAEVKKPGASVKVSCKASGYSFTNYHIHWVRQAPGQRLEWIGWIYPGSGNTKYNEKFKGRATLTADTSASTAYMELSSLRSEDTAVYYCARYDYDLYLHSWGQGTLVTVSS
VL: DIQITQSPSSVSASVGDRVTITCHASQNINVWLSWYQQKPGKAPKLLIYKASNLHTGVPSRFSGSGSGTGFTLTISSLQPEDFATYYCQQGQSYPLTFGQGTKLEIK
- EC50 (read off the curve) [2]: ~0.1 nM
- EC50 (read off the curve) [3]: ~0.1 nM
- EC50 (read off the curve) [4]: ~0.2 nM
- EC50 (read off the curve) [5]: ~0.2 nM

B15: H-ABU10-IgG4-P (antibody)
light chain: B9 VL with L30V, N33S, F96Y
heavy chain: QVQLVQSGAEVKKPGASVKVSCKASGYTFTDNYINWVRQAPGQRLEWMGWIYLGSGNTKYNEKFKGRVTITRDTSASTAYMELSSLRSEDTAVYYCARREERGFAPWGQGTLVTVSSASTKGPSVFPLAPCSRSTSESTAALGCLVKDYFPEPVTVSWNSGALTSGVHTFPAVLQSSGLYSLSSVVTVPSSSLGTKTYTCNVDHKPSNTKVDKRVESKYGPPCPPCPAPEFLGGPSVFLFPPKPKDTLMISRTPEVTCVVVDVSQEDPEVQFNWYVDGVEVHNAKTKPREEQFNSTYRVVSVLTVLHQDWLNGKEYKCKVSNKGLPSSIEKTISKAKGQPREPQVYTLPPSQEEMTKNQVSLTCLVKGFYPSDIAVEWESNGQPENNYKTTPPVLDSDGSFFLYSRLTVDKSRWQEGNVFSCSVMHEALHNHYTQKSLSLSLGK
- EC50 (read off the curve) [11]: ~2 nM
- EC50 (read off the curve) [12]: ~4 nM

B16: H-ABU10-IgG4-PE (antibody)
light chain: B9 VL with L30V, N33S, F96Y
heavy chain: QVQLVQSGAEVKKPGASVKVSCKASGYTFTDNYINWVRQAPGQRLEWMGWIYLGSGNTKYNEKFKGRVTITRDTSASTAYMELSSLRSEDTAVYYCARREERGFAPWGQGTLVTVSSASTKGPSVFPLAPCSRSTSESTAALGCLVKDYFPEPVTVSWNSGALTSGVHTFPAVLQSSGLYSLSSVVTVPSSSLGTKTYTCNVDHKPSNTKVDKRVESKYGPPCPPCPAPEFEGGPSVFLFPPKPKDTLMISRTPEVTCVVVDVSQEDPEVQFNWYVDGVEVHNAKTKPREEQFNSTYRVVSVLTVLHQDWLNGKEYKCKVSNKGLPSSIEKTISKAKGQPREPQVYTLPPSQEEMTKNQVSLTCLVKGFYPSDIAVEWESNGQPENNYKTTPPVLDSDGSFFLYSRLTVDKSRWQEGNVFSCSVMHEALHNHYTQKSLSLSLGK
- EC50 (read off the curve) [11]: ~2 nM
- EC50 (read off the curve) [12]: ~4 nM

B17: Positive 3-IgG4-P (antibody)
heavy chain: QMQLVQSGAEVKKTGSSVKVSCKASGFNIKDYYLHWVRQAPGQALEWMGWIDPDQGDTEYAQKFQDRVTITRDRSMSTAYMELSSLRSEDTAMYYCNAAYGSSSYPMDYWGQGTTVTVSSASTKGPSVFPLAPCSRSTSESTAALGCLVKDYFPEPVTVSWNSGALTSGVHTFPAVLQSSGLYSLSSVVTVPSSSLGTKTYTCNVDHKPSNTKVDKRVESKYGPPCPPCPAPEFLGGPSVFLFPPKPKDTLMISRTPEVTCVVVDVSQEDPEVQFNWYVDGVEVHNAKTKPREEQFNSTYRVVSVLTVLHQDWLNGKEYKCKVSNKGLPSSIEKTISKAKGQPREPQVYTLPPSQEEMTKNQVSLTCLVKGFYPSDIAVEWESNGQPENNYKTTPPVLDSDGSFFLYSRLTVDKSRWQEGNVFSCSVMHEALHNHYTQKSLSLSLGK
light chain: QMTQSPSAMSASVGDRVTITCKASQDIHRYLSWFQQKPGKVPKHLIYRANRLVSGVPSRFSGSGSGTEFTLTISSLQPEDFATYYCLQYDEFPYTFGGGTKVEIKRTVAAPSVFIFPPSDEQLKSGTASVVCLLNNFYPREAKVQWKVDNALQSGNSQESVTEQDSKDSTYSLSSTLTLSKADYEKHKVYACEVTHQGLSSPVTKSFNRGEC
- EC50 (read off the curve) [11]: ~2 nM
- EC50 (read off the curve) [12]: ~4 nM
- EC50 (read off the curve) (CD47 on monkey RBC): ~0.2 µg/mL

B18: Positive 3-IgG4-PE (antibody)
heavy chain: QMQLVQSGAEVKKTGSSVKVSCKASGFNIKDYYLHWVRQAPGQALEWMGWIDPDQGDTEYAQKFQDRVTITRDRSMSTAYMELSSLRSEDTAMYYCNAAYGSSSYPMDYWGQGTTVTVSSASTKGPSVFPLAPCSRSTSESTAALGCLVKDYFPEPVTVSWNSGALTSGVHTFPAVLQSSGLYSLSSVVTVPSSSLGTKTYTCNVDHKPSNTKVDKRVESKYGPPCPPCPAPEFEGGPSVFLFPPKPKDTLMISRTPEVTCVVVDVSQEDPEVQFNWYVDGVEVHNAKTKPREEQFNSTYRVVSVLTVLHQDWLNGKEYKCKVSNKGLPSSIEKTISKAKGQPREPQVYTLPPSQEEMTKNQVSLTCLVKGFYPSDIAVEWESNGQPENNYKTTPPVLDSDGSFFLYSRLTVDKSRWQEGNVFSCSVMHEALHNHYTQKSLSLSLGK
light chain: B17 light chain
- EC50 (read off the curve) [11]: ~2 nM
- EC50 (read off the curve) [12]: ~4 nM
- EC50 (read off the curve) (CD47 on monkey RBC): ~0.1 µg/mL

B19: C-ABU4 (antibody, human IgG4 S228P, kappa, V domains shown)
VH: QVQLQQSGPQLVRPGASVKISCKTSGYSFTNYWMQWVKQRPGQGLEWIGMIDPSDSESRLNQKFKDKATLTVDKSSSTAYMQLSSPTFEDSAVYYCARRGSPMITSFAYWGQGTLVTVSA
VL: DVQITQSPSFLAASPGETITINCRASKNIGKYLAWFQEKPGKTNKLLIYSGSTLQSGIPSRFSGSGSGTDFTLTISSLEPEDFAIYYCQQHNEYPYTFGGGTKLEIKR
notes: Human chimeric IgG4 antibody
- EC50 (read off the curve) [13]: ~1 nM
